Laboratory results as given in patent publication US11787839B2, “Targeting α2δ-1-bound glutamate receptors for treating diseases and disorders” (Board of Regents, The University of Texas System, priority 2017, dated 2023).
“Also recorded” adds a separate entry of the source.

Experiments:
[1] = tested on: surface GluN1, GluN2A, GluN2B; assay: HEK293 cell membrane surface protein analysis (biotinylation); assay type: cell-based, rat; set-up: dose or concentration left out as unconfirmed; details: gabapentin for 60 min
Method: Isolation and analysis of HEK293 cell membrane surface proteins: HEK293 cells were transfected with GluN1-1a, GluN2A/GluN2B and/or α2δ-1 after they had grown to 80-90% confluence in 75-cm^2 culture flasks. Cell surface biotinylation was performed using the Pierce Cell Surface Protein Isolation Kit (#89881, Thermo Fisher Scientific) according to the manufacturer's instructions. Briefly, cells were incubated with Sulfo-NHS—SS-biotin, which covalently binds to primary amino groups of extracellular proteins at 4° C. with constant rotation for 30 min. Excess biotin was quenched with quenching solution (Chaplan et al., 1997). The cells were washed, harvested by gentle scraping and lysed using the provided lysis buffer in the cocktail of protease and phosphatase inhibitors (#78440, Thermo Fisher Scientific) for 30 min at 4° C. The lysates were then centrifuged for 2 min at 10,000×g at 4° C., and the clear supernatants were added to NeutrAvidin agarose and incubated for 60 min at 25° C. with end-over-end mixing. The unbound (unbiotinylated) proteins, representing the intracellular fraction, were separated from the captured surface proteins by centrifugation of the column. […] Protein bands were quantified using Image Studio software (version 3.1, LI-COR Biosciences).

[2] = target: T1, GluN1 and α2δ-1 in hypothalamic synaptosomes (Rattus norvegicus, UniProt P35439+Q00959+Q00960); assay: Protein level analysis in hypothalamic synaptosomes (Ang II); assay type: cell-based
T1 construct: from tissue; host or cells: rat hypothalamic slices containing the PVN (Sprague-Dawley, WKY, SHR) and synaptosomes made from them
Method: Protein level analysis in hypothalamic synaptosomes: The hypothalamic tissues containing the PVN (pooled from 2 rats per sample) were homogenized using 10 volumes of ice-cold HEPES-buffered sucrose (0.32 mol/L sucrose, 1 mmol/L EGTA, and 4 mmol/L HEPES at pH 7.4) containing the protease inhibitor cocktail (Sigma-Aldrich). The homogenate was centrifuged at 2,000×g for 10 min at 4° C. to remove the nuclei and large debris. The supernatant was centrifuged at 20,000×g for 30 min to obtain the crude synaptosomal fraction. The synaptosomal pellet was lysed via hypo-osmotic shock in 9 volumes of ice-cold HEPES-buffer with the protease inhibitor cocktail for 30 min. The lysate was centrifuged at 25,000×g for 45 min at 4° C. to obtain the synaptosomal membrane fraction (Chen et al., 2018), which was then dissolved in sodium dodecyl sulfate sample buffer at a final concentration of 0.25 μg/μl for immunoblotting.
Western blotting was used to quantify GluN1 and α2δ-1 protein levels in the hypothalamic synaptosome. Fifteen micrograms of total proteins from each sample was loaded and separated by 4-15% Tris-HCl sodium dodecyl sulfate-polyacrylamide gel electrophoresis (#456-1086, Bio-Rad, Hercules, Calif.). The resolved proteins were transferred to a polyvinylidene difluoride membrane (Millipore). The membrane was treated with 5% nonfat dry milk in Tris-buffered saline (TBS) at 25° C. for 1 h and then incubated in TBS supplemented with 0.1% Triton X-100, 1% bovine serum albumin, and rabbit anti-GluN1 (#G8913, 1:100; Sigma, RRID: AB_259978), rabbit anti-α2δ-1 (#ACC-015, 1:500, Alomone, Jerusalem, Israel, RRID: AB_2039785), and mouse anti-PSD-95 (#75-348, 1:1,000, NeuroMab, Davis, Calif., RRID: AB_2315909) antibodies overnight at 4° C. The membrane was washed 3 times and then incubated with horseradish peroxidase-conjugated anti-rabbit IgG (1:5,000; Jackson ImmunoResearch, West Grove, Pa.) for 1 h at room temperature. The protein bands were detected with an enhanced chemiluminescence kit (Thermo Fisher Scientific, Waltham, Mass.), and protein band intensity was visualized and quantified using an Odyssey Fc Imager (LI-COR Biosciences, Lincoln, Nebr.). The protein levels of GluN1 and α2δ-1 were normalized by the PSD-95 protein band on the same gel.

[3] = tested on: anesthetized rats; assay: PVN microinjection and recording of RSNA and ABP (Ang II); assay type: in vivo, rat
Method: PVN microinjection and recording of renal sympathetic nerve activity: Rats were anesthetized with a mixture of α-chloralose (60 mg/kg, i.p.) and urethane (800 mg/kg, i.p.). A retroperitoneal incision was made, and a branch of the left renal postganglionic sympathetic nerve was isolated under a surgical microscope. The renal sympathetic nerve was cut distally to ensure that afferent nerve activity was not recorded. The renal sympathetic nerve activity (RSNA), arterial blood pressure (ABP), and heart rate (HR) were recorded using a 1401-PLUS analog-to-digital converter and Spike2 system (Cambridge Electronic Design, Cambridge, UK). A microinjection pipette (tip diameter, 20-30 μm) was advanced into the PVN according to the following stereotactic coordinates: 1.6-2.0 mm caudal to the bregma, 0.5 mm lateral to the midline, and 7.0-7.5 mm ventral to the dura. The microinjection was done using a calibrated microinjection system (Nanoject II; Drummond Scientific) and monitored using a surgical microscope as described previously (Li and Pan, 2006, 2007; Qiao et al., 2017). Ang II (200 μmol/L, 50 nl) was microinjected into the PVN to observe the change in RSNA and ABP in the absence or presence of α2δ-1Tat peptide (100 μmol/L, 50 nl) or control peptide (100 μmol/L, 50 nl). The microinjections were separated by 10- to 15-min intervals to allow recovery of the response. To determine the location of the injection site and diffusion of the drugs in the PVN, 5% rhodamine-labeled fluorescent microspheres (0.04 μm; Molecular Probes) were included in the injection solution (Li and Pan, 2006, 2007; Qiao et al., 2017).

[4] = target: T2, α2δ-1-GluN1 interaction (Rattus norvegicus, UniProt P35439+Q00959); assay type: cell-based; details: HEK293; 0.01, 0.1, or 1 mM peptide
T2 construct: expressed in transfected cells; host or cells: HEK293

[5] = target: T3, presynaptic NMDARs of spinal dorsal horn neurons (Rattus norvegicus, UniProt P35439+Q00959+Q00960); assay: Spinal cord slice recordings, morphine-treated rats; assay type: cell-based; details: AP5 50 μM, gabapentin 100 μM
T3 construct: from tissue; host or cells: rat lumbar spinal cord slices (lamina II neurons) and synaptosomes made from them
Method: Spinal cord slice preparation and electrophysiological recordings: The lumbar spinal cord was rapidly removed through laminectomy from the animals anesthetized with isoflurane. […] The spinal cord tissue was then placed in a shallow groove formed in an agar block and glued onto the stage of a vibratome (Leica, Germany).
All signals were recorded using an amplifier (MultiClamp700B; Axon Instruments Inc., Union City, Calif.), filtered at 1-2 kHz, and digitized at 10 kHz.

[6] = Ang II 2 μmol/L for 60 min vs vehicle
[7] = peptide 1 μmol/L for 30 min, vs control peptide

T1 sequence (Q00959 20-1464 limits assumed, other chains not shown): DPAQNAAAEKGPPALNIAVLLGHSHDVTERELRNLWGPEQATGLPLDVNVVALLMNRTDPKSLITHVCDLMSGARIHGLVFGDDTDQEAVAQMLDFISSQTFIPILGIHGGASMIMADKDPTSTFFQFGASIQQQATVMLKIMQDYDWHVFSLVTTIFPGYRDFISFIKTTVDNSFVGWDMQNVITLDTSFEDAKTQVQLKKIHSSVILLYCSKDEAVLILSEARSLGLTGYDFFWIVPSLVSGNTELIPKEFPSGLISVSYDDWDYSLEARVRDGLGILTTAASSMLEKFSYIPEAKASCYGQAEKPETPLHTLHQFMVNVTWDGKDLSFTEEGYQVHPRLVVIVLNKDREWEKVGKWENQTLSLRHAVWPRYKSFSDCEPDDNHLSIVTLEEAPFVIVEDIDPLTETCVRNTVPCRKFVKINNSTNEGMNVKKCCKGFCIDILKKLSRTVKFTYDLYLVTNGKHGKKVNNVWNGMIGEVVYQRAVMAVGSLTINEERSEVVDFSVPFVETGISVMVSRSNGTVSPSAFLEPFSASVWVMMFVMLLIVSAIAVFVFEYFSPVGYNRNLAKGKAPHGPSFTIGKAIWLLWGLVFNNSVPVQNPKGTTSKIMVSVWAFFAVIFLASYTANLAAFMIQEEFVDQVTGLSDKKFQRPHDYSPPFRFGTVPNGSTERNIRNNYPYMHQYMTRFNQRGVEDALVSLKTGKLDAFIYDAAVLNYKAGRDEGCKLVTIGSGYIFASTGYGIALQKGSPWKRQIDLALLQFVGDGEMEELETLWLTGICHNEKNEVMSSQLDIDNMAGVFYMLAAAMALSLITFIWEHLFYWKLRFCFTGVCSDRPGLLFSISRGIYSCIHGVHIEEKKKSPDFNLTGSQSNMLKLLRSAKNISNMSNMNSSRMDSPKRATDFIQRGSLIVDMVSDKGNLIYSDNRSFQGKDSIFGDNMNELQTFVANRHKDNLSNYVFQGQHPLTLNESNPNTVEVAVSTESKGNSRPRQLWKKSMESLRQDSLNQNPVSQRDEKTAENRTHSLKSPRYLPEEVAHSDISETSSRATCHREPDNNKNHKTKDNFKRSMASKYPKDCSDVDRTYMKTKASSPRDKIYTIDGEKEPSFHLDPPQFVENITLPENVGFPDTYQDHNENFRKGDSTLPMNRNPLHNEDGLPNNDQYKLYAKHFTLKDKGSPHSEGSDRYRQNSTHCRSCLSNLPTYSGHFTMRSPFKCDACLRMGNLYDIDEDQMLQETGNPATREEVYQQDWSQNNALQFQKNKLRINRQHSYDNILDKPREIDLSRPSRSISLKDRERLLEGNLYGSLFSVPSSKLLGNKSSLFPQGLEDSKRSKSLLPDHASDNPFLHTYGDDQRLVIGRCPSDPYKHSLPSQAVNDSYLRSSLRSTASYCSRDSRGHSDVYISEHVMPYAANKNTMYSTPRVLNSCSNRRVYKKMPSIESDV
T1 sequence (Q00960 27-1482, other chains not shown): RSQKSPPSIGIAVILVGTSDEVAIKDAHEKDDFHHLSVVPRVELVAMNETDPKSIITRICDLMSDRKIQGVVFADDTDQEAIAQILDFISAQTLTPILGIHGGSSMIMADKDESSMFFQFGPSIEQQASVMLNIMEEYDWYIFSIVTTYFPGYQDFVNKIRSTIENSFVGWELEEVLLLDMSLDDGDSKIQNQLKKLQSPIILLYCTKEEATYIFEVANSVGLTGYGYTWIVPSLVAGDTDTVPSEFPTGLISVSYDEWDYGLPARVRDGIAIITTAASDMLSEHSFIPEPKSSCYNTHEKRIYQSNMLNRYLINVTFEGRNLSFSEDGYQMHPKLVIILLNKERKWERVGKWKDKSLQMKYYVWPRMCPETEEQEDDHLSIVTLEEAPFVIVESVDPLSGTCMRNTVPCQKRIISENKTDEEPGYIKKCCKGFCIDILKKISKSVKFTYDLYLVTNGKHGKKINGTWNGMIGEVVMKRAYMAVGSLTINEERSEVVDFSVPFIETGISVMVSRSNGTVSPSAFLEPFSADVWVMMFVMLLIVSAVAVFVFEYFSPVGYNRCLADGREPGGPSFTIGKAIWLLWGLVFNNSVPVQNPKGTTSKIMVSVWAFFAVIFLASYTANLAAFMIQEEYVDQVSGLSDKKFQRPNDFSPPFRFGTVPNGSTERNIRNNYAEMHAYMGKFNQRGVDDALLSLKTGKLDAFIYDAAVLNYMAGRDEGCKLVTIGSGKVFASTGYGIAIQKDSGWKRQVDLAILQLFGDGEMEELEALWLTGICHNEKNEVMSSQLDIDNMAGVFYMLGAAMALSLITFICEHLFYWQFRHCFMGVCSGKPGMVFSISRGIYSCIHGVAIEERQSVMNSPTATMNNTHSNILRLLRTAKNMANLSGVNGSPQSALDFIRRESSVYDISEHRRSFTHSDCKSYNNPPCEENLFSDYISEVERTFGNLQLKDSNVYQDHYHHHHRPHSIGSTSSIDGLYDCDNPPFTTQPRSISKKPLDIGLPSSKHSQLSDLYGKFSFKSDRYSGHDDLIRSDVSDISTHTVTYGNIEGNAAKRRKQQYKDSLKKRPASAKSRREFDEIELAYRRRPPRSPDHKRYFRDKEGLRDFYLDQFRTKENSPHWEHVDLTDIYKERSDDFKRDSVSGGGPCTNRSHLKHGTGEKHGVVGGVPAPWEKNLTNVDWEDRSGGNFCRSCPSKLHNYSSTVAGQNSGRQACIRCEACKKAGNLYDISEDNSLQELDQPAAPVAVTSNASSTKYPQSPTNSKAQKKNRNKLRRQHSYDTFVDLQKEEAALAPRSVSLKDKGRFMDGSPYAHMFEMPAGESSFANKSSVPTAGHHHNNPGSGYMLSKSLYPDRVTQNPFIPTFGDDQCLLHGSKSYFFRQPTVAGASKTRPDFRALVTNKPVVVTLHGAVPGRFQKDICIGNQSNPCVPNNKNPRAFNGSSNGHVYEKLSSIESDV
T2 sequence (Q00959 23-1464, other chains not shown): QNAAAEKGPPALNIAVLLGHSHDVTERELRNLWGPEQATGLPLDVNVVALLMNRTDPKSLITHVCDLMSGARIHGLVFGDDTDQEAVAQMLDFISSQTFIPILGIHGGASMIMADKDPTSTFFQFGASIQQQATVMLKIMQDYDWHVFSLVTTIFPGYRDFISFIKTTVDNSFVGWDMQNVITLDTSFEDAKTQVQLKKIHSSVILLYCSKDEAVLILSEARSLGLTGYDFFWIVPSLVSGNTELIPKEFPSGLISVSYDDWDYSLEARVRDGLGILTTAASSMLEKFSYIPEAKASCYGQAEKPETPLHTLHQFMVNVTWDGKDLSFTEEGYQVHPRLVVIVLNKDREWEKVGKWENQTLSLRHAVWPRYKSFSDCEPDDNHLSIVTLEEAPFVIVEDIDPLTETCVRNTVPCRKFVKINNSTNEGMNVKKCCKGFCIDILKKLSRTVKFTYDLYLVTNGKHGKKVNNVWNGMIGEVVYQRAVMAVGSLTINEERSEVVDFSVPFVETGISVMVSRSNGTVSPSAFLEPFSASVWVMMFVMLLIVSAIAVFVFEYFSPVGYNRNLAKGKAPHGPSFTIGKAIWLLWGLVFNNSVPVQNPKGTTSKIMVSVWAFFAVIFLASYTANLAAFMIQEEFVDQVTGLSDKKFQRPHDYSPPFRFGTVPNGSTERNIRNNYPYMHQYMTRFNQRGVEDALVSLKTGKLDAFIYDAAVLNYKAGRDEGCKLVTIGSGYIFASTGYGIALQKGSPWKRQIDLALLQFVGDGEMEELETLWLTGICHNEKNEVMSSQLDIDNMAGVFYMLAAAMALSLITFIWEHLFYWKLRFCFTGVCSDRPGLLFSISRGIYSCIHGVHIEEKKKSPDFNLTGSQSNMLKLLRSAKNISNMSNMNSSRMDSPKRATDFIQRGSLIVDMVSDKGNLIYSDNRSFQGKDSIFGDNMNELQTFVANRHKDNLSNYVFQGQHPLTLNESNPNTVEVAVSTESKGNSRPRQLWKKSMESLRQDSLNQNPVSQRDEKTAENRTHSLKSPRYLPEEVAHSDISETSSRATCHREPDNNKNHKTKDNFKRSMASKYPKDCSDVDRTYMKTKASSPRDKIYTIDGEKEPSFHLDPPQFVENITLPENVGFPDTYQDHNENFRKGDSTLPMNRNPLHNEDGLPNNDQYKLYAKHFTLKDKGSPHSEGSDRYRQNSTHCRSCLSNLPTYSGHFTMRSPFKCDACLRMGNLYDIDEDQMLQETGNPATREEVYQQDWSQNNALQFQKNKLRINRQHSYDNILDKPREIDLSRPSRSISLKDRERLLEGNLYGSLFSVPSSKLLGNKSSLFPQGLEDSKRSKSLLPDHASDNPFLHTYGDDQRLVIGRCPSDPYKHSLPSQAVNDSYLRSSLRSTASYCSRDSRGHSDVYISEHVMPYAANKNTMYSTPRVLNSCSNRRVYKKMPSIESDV

NCC1(CC(=O)O)CCCCC1 [gabapentin]
surface protein levels of GluN1, GluN2A and GluN2B increased by α2δ-1 coexpression [1]: normalized; also recorded: reversed

Ang II: angiotensin II, obtained from Sigma (DRVYIHPF; Angiotensin-2; UniProt P01019 25-32, looked up)
protein level of GluN1 in hypothalamic synaptosomes [2, 6]: significantly increased
protein level of α2δ-1 in hypothalamic synaptosomes [2, 6]: significantly increased
RSNA and mean ABP ([3]; Ang II 200 μmol/L, 50 nl into the PVN): significantly increased

YGRKKRRQRRRVSGLNPSLWSIFGLQFILLWLVSGSRHYLW (a2d1 peptide) [α2δ-1Tat peptide, 30-amino-acid peptide mimicking the C-terminal domain of α2δ-1 fused to the cell-penetrating peptide Tat]
effect of Ang II on the protein level of GluN1 [2, 7]: significantly attenuated
effect of Ang II on the protein level of α2δ-1 [2, 7]: significantly attenuated
direct interaction between α2δ-1 and GluN1 [4]: disrupted
frequency of mEPSCs in dorsal horn neurons ([5]; peptide 1 μM for 60 min): significantly reduced
amplitude of monosynaptic evoked EPSCs ([5]; peptides 1 μM for 60 min): normalized
ABP and RSNA responses to Ang II after prior peptide microinjection into the PVN ([3]; peptides 100 μmol/L, 50 nl): failed to significantly increase
